Test results as given in patent US20160279199A1, “PHARMACEUTICAL COMPOSITION FOR TREATING A METABOLIC SYNDROME” (Sanofi, priority 2010, published 2016).

Columns and labels:
diabetic rhesus monkeys = conditions: 6 weeks; cited from earlier work
[1] = test system: ob/ob mice, db/db mice, ZDF rats; conditions: cited from earlier work
mouse 3T3-L1 adipocytes = conditions: in the presence and absence of insulin; cited from earlier work
db/db mice [2] = assay: Fed blood glucose during treatment of db/db mice; format: in vivo, mouse; conditions: s.c. once daily (AVE0010 0.05, FGF-21 0.75, combination 0.75+0.05 mg·kg−1·day−1), up to 4 weeks, FIG. 6
Experimental: (§1) Female db/db mice (BKS.Cg-m +/+ Leprdb/J, age of 6 weeks) were treated with vehicle (PBS), 0.05 mg·kg^−1·day^−1 AVE0010, 0.75 mg·kg^−1·day^−1 recombinant human FGF-21 (SEQ ID NO: 2) or a combined dose of FGF-21 (SEQ ID NO: 2) and AVE0010 (SEQ ID NO:9), (0.75+0.05 mg·kg^−1·day^−1) subcutaneously once daily. Mice were fed ad libitum. Before the first treatment, after one week and 4 weeks blood glucose and HbA1c were measured under fed conditions. After 21 days of treatment an oral glucose tolerance test (OGTT) was initiated. Fasted mice were orally challenged with 2 g·kg^−1 glucose solution and blood glucose was measured at indicated time points.

db/db mice [3] = assay: Oral glucose tolerance test (OGTT) in treated db/db mice; format: in vivo, mouse; conditions: after 21 days s.c. once daily (AVE0010 0.05, FGF-21 0.75, combination 0.75+0.05 mg·kg−1·day−1), fasted, 2 g·kg−1 oral glucose, vs vehicle treated obese control, FIG. 5
Experimental: as §1

[4] = ob/ob and db/db mice and obese ZDF rats

B1: FGF21: Fibroblast growth factor 21, metabolic regulator produced primarily by the liver, as studied in the cited literature (protein, UniProt Q9NSA1 29-209, looked up)
Fibroblast growth factor 21: HPIPDSSPLLQFGGQVRQRYLYTDDAQQTEAHLEIREDGTVGGAADQSPESLLQLKALKPGVIQILGVKTSRFLCQRPDGALYGSLHFDPEACSFRELLLEDGYNVYQSEAHGLPLHLPGNKSPHRDPAPRGPARFLPLPGLPPALPEPPGILAPQPPDVGSSDPLSMVGPSQGRSPSYAS
In the case of B1, the HDL-cholesterol (diabetic rhesus monkeys) is given as “increased”, the LDL-cholesterol (diabetic rhesus monkeys) is given as “significantly lowered” and the body weight (diabetic rhesus monkeys) is given as “slightly but significantly decreased”. For the same molecule, the “fasting plasma glucose, fructosamine, triglyceride, insulin and glucagone levels” value (diabetic rhesus monkeys) was “reduced”, the hypoglycemia (diabetic rhesus monkeys) was “not observed” and the “mitogenicity, hypoglycemia, or weight gain” value ([1]; any dose tested, diabetic or healthy animals) was “did not induce”. The “food intake or body weight/composition” value ([1]; diabetic or lean mice and rats, 2 weeks of administration) was “did not affect”, the “fed and fasting blood glucose, triglycerides, and glucagon levels” value ([1]; ob/ob and db/db mice and 8 week old ZDF rats, dose dependent) was “decrease” and the “blood glucose and triglycerides” value [1, 4] was “significantly lowered”. The fasting insulin levels [1, 4] was “decreased”, the “glucose clearance during an oral glucose tolerance test” value [1, 4] was “improved” and the glucose uptake (mouse 3T3-L1 adipocytes) was “stimulate glucose uptake”.

B2: FGF-21 (SEQ ID NO: 2): mutated FGF-21 carrying a deletion of amino acids 1-28 of human FGF-21 and an additional glycine at the N-terminus (protein)
chain: GHPIPDSSPLLQFGGQVRQRYLYTDDAQQTEAHLEIREDGTVGGAADQSPESLLQLKALKPGVIQILGVKTSRFLCQRPDGALYGSLHFDPEACSFRELLLEDGYNVYQSEAHGLPLHLPGNKSPHRDPAPRGPARFLPLPGLPPAPPEPPGILAPQPPDVGSSDPLSMVGPSQGRSPSYAS
modifications: G linked to fragment of human FGF21 from H29 to S209
notes: mutated FGF-21 carrying a deletion of amino acids 1-28 of human FGF-21 and an additional glycine at the N-terminus
For B2, the blood glucose (db/db mice [2]) was “inhibition of blood glucose increase” and the “glucose tolerance (OGTT)” value (db/db mice [3]) was “small improvement in glucose tolerance”.
